Biological target: NEIL1 P2T (human, UniProt Q96FI4 1-390, P2T)
Test: EMSA; EMSA: 25 mM Tris-HCl pH 7.5, 100 mM NaCl, 1 mM DTT, 10 nM DNA, 1-200 nM NEIL1 P2T, on ice 30 min; 6% native PAGE, 0.5x TBE, 4 C
Settings: protein: recombinant; tags: C-terminal His6; label: 5'-32P top strand; blunt

Chain of NEIL1 P2T (Q96FI4 whole entry P2T): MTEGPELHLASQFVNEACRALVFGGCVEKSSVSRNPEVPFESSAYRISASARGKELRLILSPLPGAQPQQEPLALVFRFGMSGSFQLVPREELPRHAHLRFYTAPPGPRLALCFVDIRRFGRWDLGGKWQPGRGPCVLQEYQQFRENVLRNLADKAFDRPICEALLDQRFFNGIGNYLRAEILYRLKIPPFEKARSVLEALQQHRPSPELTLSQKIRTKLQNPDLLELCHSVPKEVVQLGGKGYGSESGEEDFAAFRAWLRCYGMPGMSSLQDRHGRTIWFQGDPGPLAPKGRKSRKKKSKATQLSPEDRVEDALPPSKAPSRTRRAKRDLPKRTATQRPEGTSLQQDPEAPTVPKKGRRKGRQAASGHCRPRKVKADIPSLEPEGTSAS

Row | Binder | binding result
1 | 41-mer 5caC:G (dsDNA, 5-carboxylcytosine at position 20 of top strand) DNA 1: GCTACCTACCTAGCAGGGGCCAGCTGTCCCACTGCTCGGAA DNA 2: TTCCGAGCAGTGGGACAGCTGGCCCCTGCTAGGTAGGTAGC | binds
2 | 41-mer 5OHC:G (dsDNA, 5-hydroxycytosine at position 20 of top strand) DNA 1: GCTACCTACCTAGCAGGGGCCAGCTGTCCCACTGCTCGGAA DNA 2: TTCCGAGCAGTGGGACAGCTGGCCCCTGCTAGGTAGGTAGC | binds

Source: publication PMC5566547, “Nei-like 1 (NEIL1) excises 5-carboxylcytosine directly and stimulates TDG-mediated 5-formyl and 5-carboxylcytosine excision”
